Biological target: T1, human PD-L1 (WT) (human, UniProt Q9NZQ7 19-127, limits assumed)
T1 construct: also called human PD-L1 N-terminal IgV domain
Assay: affinity measurement, method not stated

T1 sequence (Q9NZQ7 19-127 limits assumed): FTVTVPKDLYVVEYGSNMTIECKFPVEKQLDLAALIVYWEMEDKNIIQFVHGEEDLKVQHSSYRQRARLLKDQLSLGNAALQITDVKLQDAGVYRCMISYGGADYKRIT

- Kd: 5.92 nM
B1: PD-L1 ISVD-9 (VHH)
VHH: QVQLVESGGGLVQPGGSLRLSCAASGKMSSRRCMAWFRQAPGKERERVAKLLTTSGSTYLADSVKGRFTISRDNSKNTVYLQMNSLRAEDTAVYYCAADSFEDPTCTLVTSSGAFQYWGQGTLVTVSS
notes: also called ISVD specific for PD-L1; aPDL1.9

Reference: patent publication US20230015590A1 (JIANGSU ALPHAMAB BIOPHARMACEUTICALS, published 2023)
